Source: paper PMC5960627
Where two headings read alike, the source gives them in different places.

Key:
Assay in all cases: other fluorescence titration
[1] = biological target: BSAT1R_(309-327mut), FRET biosensor with mutant AT1R a.a. 309-327 (SMD4JM) between EYFPc and ECFP (human)
[2] = biological target: BSAT1R_(309-327), FRET biosensor with AT1R a.a. 309-327 (SMD4JM) between EYFPc and ECFP (human)
[3] = biological target: BSAT1R_(215-232), FRET biosensor with AT1R a.a. 215-232 (part of SMD3) between EYFPc and ECFP (human)
[4] = biological target: BSAT1R_(215-242mut), FRET biosensor with mutant AT1R a.a. 215-242 (SMD3) between EYFPc and ECFP (human)
[5] = biological target: BSAT1R_(125-141), FRET biosensor with AT1R a.a. 125-141 (SMD2) between EYFPc and ECFP (human)
[6] = biological target: BSAT1R_(125-141mut), FRET biosensor with mutant AT1R a.a. 125-141 (SMD2) between EYFPc and ECFP (human)
[7] = biological target: BSAT1R_(215-242), FRET biosensor with AT1R a.a. 215-242 (entire SMD3) between EYFPc and ECFP (human)
Chain of BSAT1R_(215-242), FRET biosensor with AT1R a.a. 215-242 (entire SMD3) between EYFPc and ECFP (human) (P30556 215-242): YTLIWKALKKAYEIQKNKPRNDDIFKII

[8] = biological target: BSAT1R_(309-327), FRET biosensor with AT1R a.a. 309-327 (SMD4JM) between EYFPc and ECFP (human); remark: listed apart in the source

EC50(Ca2+) of the interaction, species Sp1mut [1]: 770 nM
EC50(Ca2+) of the interaction, species Sp2mut [1]: 9600 nM
EC50(Ca2+) of the interaction, species Sp1 [2]: 310 nM
EC50(Ca2+) of the interaction, species Sp2 [2]: 3170 nM
EC50(Ca2+) of the interaction [3]: 300 nM
EC50(Ca2+) of the interaction [4]: 1490 nM
EC50(Ca2+) of the interaction [5]: 4100 nM
EC50(Ca2+) of the interaction [6]: 17600 nM
EC50(Ca2+) of the interaction [7]: 150 nM
EC50(Ca2+) of the interaction, species Sp2 [8]: 3180 nM
Substance: Calmodulin (from UniProt P0DP23 1-149) (natural protein)
